Results published in patent publication US20190134153A1, “IMMUNOMODULATORY EFFECT OF INHALED KINASE INHIBITOR PEPTIDES IN LUNG” (MOERAE MATRIX, INC., priority 2017, published 2019).

Columns and labels:
Test in all cases: Kinase Profiling Assay
Format in all cases: biochemical
Settings in all cases: 100 μM
BRK(h) = BRK(h) (Homo sapiens, UniProt Q13882)
FGFR1(V561M)(h) = FGFR1(V561M)(h) (Homo sapiens, UniProt P11362, V561M)
Hck(h) activated = Hck(h) activated (Homo sapiens, UniProt P08631)
LKB1(h) = molecular target: T1, LKB1(h) (Homo sapiens, UniProt Q15831)
T1 sequence (Q15831 1-433): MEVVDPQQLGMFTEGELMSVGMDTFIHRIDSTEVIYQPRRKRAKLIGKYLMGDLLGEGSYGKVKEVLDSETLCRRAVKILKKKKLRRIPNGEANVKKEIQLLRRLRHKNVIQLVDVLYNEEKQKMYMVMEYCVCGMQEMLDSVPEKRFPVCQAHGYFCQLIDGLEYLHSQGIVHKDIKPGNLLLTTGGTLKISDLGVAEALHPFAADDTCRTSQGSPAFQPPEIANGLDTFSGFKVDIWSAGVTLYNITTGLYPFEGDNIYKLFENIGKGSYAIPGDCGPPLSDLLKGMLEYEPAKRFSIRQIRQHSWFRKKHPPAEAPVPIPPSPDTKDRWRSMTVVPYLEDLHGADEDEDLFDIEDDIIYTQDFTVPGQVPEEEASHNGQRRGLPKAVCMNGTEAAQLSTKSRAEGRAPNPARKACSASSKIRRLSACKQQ
T1 sequence (Q7RTN6 1-431 partner): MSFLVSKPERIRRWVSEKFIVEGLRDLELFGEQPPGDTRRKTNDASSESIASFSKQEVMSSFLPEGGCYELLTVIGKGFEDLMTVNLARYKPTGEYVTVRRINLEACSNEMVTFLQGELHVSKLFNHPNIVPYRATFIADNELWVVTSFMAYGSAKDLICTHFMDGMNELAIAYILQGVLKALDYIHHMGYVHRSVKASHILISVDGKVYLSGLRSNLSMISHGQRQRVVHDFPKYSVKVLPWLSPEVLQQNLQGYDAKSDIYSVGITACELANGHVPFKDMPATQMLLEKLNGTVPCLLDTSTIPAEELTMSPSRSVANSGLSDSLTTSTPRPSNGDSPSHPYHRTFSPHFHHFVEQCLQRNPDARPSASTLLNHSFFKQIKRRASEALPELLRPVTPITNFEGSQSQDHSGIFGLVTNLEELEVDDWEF
T1 sequence (Q9Y376 1-341 partner): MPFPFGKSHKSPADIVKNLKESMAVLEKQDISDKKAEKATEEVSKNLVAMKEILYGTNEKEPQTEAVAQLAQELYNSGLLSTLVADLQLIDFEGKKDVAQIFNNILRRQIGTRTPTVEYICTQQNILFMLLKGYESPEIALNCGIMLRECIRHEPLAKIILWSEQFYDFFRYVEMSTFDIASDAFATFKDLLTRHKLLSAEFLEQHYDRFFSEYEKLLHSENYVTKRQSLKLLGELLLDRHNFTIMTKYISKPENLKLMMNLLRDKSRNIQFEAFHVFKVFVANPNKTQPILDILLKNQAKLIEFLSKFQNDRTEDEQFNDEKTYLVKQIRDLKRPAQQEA

Txk(h) = molecular target: T2, Txk(h) (Homo sapiens, UniProt P42681)
T2 sequence (P42681 1-527): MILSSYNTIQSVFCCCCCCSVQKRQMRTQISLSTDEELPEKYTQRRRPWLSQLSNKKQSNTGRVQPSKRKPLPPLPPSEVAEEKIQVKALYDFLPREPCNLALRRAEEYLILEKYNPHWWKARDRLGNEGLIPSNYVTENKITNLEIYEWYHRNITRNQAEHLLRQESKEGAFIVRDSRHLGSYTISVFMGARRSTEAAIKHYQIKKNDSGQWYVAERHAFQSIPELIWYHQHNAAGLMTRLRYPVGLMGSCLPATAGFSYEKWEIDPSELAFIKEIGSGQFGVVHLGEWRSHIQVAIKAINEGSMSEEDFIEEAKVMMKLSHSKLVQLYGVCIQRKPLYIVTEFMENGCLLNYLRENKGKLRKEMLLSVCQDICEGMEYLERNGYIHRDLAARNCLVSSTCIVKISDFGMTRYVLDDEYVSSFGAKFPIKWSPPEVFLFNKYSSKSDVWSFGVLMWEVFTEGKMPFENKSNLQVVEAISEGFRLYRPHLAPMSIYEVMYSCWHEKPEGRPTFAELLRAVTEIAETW

eEF-2K(h) = eEF-2K(h) (Homo sapiens, UniProt O00418)
EphA1(h) = molecular target: T3, EphA1(h) (Homo sapiens, UniProt P21709)
T3 sequence (P21709 26-976): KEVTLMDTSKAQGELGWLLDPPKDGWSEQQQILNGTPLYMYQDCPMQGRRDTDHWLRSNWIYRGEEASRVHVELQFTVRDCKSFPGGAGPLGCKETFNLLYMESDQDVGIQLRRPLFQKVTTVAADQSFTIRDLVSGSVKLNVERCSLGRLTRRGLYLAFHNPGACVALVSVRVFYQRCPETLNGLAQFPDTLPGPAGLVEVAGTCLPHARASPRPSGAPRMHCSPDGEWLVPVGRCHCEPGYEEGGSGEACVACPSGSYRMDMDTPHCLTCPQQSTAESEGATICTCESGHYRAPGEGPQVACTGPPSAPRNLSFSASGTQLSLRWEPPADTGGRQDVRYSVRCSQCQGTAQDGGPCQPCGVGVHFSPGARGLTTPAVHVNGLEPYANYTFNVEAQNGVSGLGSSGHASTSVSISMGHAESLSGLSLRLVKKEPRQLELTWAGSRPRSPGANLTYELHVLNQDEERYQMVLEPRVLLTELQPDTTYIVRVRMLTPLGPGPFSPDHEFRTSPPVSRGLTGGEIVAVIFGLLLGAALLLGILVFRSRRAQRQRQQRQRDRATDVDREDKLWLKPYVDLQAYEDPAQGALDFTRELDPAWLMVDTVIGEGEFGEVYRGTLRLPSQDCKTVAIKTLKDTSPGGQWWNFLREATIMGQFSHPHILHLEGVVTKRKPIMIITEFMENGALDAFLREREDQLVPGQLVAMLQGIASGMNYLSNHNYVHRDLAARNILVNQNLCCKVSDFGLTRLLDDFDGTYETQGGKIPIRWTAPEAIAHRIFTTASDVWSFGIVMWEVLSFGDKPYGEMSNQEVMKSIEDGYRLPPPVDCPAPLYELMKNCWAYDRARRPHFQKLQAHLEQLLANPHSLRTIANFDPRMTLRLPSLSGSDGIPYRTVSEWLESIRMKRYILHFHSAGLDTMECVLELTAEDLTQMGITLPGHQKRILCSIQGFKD

Rsk3(h) = Rsk3(h) (Homo sapiens, UniProt Q15349)
Sequence of Rsk3(h) (Q15349 whole entry): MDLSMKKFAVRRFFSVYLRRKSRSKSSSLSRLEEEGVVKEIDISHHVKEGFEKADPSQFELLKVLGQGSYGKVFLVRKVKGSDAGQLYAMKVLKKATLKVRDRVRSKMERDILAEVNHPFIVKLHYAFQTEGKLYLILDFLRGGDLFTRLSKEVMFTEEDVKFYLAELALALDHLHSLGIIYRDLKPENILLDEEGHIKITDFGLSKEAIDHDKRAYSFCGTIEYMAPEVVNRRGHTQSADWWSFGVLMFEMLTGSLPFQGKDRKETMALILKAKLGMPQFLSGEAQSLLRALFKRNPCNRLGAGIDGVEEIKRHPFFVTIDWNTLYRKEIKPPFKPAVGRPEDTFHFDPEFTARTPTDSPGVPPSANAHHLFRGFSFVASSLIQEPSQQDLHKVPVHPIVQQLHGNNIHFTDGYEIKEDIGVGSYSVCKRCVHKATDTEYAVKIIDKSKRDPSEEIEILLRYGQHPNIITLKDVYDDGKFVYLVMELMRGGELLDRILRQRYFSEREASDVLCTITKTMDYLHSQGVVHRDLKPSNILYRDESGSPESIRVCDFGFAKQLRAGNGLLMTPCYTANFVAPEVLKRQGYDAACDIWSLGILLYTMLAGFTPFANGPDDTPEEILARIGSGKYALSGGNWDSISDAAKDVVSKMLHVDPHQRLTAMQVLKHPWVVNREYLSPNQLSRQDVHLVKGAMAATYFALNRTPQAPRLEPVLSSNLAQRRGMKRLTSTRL

Sequence of FGFR1(V561M)(h) (P11362 22-822 V561M): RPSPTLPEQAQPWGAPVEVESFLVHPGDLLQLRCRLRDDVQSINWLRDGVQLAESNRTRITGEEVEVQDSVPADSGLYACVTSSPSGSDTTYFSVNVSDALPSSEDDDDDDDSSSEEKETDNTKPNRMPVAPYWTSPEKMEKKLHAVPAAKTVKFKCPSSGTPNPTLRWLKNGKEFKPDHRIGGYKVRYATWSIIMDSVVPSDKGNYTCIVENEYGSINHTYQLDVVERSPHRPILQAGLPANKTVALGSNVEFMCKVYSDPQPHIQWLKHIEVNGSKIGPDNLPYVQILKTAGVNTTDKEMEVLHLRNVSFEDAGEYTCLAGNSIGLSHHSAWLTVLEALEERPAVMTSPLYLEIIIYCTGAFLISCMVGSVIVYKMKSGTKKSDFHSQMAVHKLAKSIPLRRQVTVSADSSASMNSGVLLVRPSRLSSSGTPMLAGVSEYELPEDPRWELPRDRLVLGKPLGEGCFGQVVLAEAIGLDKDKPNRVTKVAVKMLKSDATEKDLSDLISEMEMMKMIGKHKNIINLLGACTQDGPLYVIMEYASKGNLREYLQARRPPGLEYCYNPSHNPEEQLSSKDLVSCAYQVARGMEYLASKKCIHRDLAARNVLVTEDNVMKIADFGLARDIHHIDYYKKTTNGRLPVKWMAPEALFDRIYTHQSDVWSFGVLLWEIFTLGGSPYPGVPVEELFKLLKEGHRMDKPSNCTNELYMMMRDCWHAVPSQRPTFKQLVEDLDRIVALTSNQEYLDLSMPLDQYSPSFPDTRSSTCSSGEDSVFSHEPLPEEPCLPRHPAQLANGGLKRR
Sequence of BRK(h) (Q13882 whole entry): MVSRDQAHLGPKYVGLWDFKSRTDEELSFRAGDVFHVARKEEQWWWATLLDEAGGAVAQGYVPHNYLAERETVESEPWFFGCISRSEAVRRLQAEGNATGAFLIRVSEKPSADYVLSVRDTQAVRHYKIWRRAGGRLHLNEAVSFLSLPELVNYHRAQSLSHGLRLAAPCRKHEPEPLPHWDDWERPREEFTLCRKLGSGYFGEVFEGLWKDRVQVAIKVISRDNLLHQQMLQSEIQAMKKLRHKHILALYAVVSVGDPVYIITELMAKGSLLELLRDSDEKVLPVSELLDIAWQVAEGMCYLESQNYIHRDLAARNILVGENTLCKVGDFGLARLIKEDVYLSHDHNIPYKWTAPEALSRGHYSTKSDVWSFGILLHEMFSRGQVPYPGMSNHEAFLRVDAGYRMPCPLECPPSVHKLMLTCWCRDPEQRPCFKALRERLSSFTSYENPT
Sequence of Hck(h) activated (P08631 whole entry): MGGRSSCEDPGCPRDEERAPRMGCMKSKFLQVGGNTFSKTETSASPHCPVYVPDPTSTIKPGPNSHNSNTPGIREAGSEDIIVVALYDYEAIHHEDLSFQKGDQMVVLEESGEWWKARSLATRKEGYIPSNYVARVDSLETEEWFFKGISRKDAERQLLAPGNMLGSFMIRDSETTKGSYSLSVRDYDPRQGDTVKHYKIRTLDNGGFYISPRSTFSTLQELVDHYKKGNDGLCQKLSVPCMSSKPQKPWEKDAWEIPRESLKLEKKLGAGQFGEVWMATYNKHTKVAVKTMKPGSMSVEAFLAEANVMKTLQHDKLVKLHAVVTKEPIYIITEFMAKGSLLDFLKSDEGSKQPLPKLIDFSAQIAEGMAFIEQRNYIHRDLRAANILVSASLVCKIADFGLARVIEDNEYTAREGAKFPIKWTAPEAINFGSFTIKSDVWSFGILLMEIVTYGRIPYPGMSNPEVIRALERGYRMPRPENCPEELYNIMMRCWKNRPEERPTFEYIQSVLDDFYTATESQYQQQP

YARAAARQARAKALNRQLGVA [MMI-0200]
% activity (BRK(h)): 127% | % activity (FGFR1(V561M)(h)): 72% | % activity (Hck(h) activated): 100% | % activity (LKB1(h)): 99% | % activity (Txk(h)): 98%

KAFAKLAARLYRKALARQLGVAA [MMI-0400]
% activity (BRK(h)): 18% | % activity (eEF-2K(h)): 43% | % activity (EphA1(h)): 61% | % activity (FGFR1(V561M)(h)): 74% | % activity (Hck(h) activated): 81% | % activity (LKB1(h)): 89% | % activity (Rsk3(h)): 71% | % activity (Txk(h)): 37%

HRRIKAWLKKIKALARQLGVAA [MMI-0500]
% activity (BRK(h)): 41% | % activity (eEF-2K(h)): 43% | % activity (EphA1(h)): 40% | % activity (Hck(h) activated): 67% | % activity (LKB1(h)): 51% | % activity (Rsk3(h)): 23% | % activity (Txk(h)): 10%

FAKLAARLYRKALARQLGVAA [MMI-0300]
% activity (BRK(h)): 35% | % activity (eEF-2K(h)): 91% | % activity (EphA1(h)): 73% | % activity (FGFR1(V561M)(h)): 74% | % activity (Hck(h) activated): 82% | % activity (LKB1(h)): 101% | % activity (Rsk3(h)): 76% | % activity (Txk(h)): 48%
